# Measured values reported in paper PMC7367873, “Dissecting the sequence determinants for dephosphorylation by the catalytic subunits of phosphatases PP1 and PP2A” (Nature Communications, 2020).
# Experiments:
# [1] = test system: GFP-14-3-3β and its binding proteins; experiment: GFP-14-3-3β co-IP with LC-MS/MS label-free quantification, untreated versus PP1c-treated; parameters: species or system human
# [2] = test system: GFP-14-3-3β; experiment: GFP-14-3-3β co-IP with LC-MS/MS, untreated GFP-14-3-3β versus GFP control (14-3-3 interactome); type: binding, human
# [3] = PP1 vs untreated, LFQ intensities, replicates 1-3
# [4] = untreated vs GFP, LFQ intensities, replicates 1-3
Molecule,"Difference (log2), PP1 vs untreated ([1]; log2 difference, pairwise comparison PP1 vs untreated, label-free quantification, 3 replicates each)","Difference (log2), untreated vs GFP ([2]; log2 difference, pairwise comparison untreated vs GFP, label-free quantification, 3 replicates each)","Difference (log2), PP1 vs untreated [1, 3]","Difference (log2), untreated vs GFP [2, 4]"
"ATP5A1 (protein, UniProt P25705 44-553, looked up) ATP synthase F(1) complex …: QKTGTAEMSSILEERILGADTSVDLEETGRVLSIGDGIARVHGLRNVQAEEMVEFSSGLKGMSLNLEPDNVGVVVFGNDKLIKEGDIVKRTGAIVDVPVGEELLGRVVDALGNAIDGKGPIGSKTRRRVGLKAPGIIPRISVREPMQTGIKAVDSLVPIGRGQRELIIGDRQTGKTSIAIDTIINQKRFNDGSDEKKKLYCIYVAIGQKRSTVAQLVKRLTDADAMKYTIVVSATASDAAPLQYLAPYSGCSMGEYFRDNGKHALIIYDDLSKQAVAYRQMSLLLRRPPGREAYPGDVFYLHSRLLERAAKMNDAFGGGSLTALPVIETQAGDVSAYIPTNVISITDGQIFLETELFYKGIRPAINVGLSVSRVGSAAQTRAMKQVAGTMKLELAQYREVAAFAQFGSDLDAATQQLLSRGVRLTELLKQGQYSPMAIEEQVAVIYAGVRGYLDKLEPSKITKFENAFLSHVVSQHQALLGTIRADGKISEQSDAKLKEIVTNFLAGFEA",1.626,-0.3409,,
"SERPINH1 (protein, UniProt P50454 19-418, looked up) Serpin H1: AEVKKPAAAAAPGTAEKLSPKAATLAERSAGLAFSLYQAMAKDQAVENILVSPVVVASSLGLVSLGGKATTASQAKAVLSAEQLRDEEVHAGLGELLRSLSNSTARNVTWKLGSRLYGPSSVSFADDFVRSSKQHYNCEHSKINFRDKRSALQSINEWAAQTTDGKLPEVTKDVERTDGALLVNAMFFKPHWDEKFHHKMVDNRGFMVTRSYTVGVMMMHRTGLYNYYDDEKEKLQIVEMPLAHKLSSLIILMPHHVEPLERLEKLLTKEQLKIWMGKMQKKAVAISLPKGVVEVTHDLQKHLAGLGLTEAIDKNKADLSRMSGKKDLYLASVFHATAFELDTDGNPFDQDIYGREELRSPKLFYADHPFIFLVRDTQSGSLLFIGRLVRPKGDKMRDEL",,,-1.158 log2,-0.8949 log2
"EWSR1 (protein, UniProt Q01844 1-656, looked up) RNA-binding protein EWS: MASTDYSTYSQAAAQQGYSAYTAQPTQGYAQTTQAYGQQSYGTYGQPTDVSYTQAQTTATYGQTAYATSYGQPPTGYTTPTAPQAYSQPVQGYGTGAYDTTTATVTTTQASYAAQSAYGTQPAYPAYGQQPAATAPTRPQDGNKPTETSQPQSSTGGYNQPSLGYGQSNYSYPQVPGSYPMQPVTAPPSYPPTSYSSTQPTSYDQSSYSQQNTYGQPSSYGQQSSYGQQSSYGQQPPTSYPPQTGSYSQAPSQYSQQSSSYGQQSSFRQDHPSSMGVYGQESGGFSGPGENRSMSGPDNRGRGRGGFDRGGMSRGGRGGGRGGMGSAGERGGFNKPGGPMDEGPDLDLGPPVDPDEDSDNSAIYVQGLNDSVTLDDLADFFKQCGVVKMNKRTGQPMIHIYLDKETGKPKGDATVSYEDPPTAKAAVEWFDGKDFQGSKLKVSLARKKPPMNSMRGGLPPREGRGMPPPLRGGPGGPGGPGGPMGRMGGRGGDRGGFPPRGPRGSRGNPSGGGNVQHRAGDWQCPNPGCGNQNFAWRTECNQCKAPKPEGFLPPPFPPPGGDRGRGGPGGMRGGRGGLMDRGGPGGMFRGGRGGDRGGFRGGRGMDRGGFGGGRRGGPGGPPGPLMEQMGGRRGGRGGPGKMDKGEHRQERRDRPY",,,-1.1218 log2,2.021 log2
"HNRNPL (protein, UniProt P14866 1-589, looked up) Heterogeneous nuclear …: MSRRLLPRAEKRRRRLEQRQQPDEQRRRSGAMVKMAAAGGGGGGGRYYGGGSEGGRAPKRLKTDNAGDQHGGGGGGGGGAGAAGGGGGGENYDDPHKTPASPVVHIRGLIDGVVEADLVEALQEFGPISYVVVMPKKRQALVEFEDVLGACNAVNYAADNQIYIAGHPAFVNYSTSQKISRPGDSDDSRSVNSVLLFTILNPIYSITTDVLYTICNPCGPVQRIVIFRKNGVQAMVEFDSVQSAQRAKASLNGADIYSGCCTLKIEYAKPTRLNVFKNDQDTWDYTNPNLSGQGDPGSNPNKRQRQPPLLGDHPAEYGGPHGGYHSHYHDEGYGPPPPHYEGRRMGPPVGGHRRGPSRYGPQYGHPPPPPPPPEYGPHADSPVLMVYGLDQSKMNCDRVFNVFCLYGNVEKVKFMKSKPGAAMVEMADGYAVDRAITHLNNNFMFGQKLNVCVSKQPAIMPGQSYGLEDGSCSYKDFSESRNNRFSTPEQAAKNRIQHPSNVLHFFNAPLEVTEENFFEICDELGVKRPSSVKVFSGKSERSSSGLLEWESKSDALETLGFLNHYQMKNPNGPYPYTLKLCFSTAQHAS",,,-1.243 log2,0.7735 log2
"GTF3C3 (protein, UniProt Q9Y5Q9 2-886, looked up) General transcription factor …: SGFSPELIDYLEGKISFEEFERRREERKTREKKSLQEKGKLSAEENPDDSEVPSSSGINSTKSQDKDVNEGETSDGVRKSVHKVFASMLGENEDDEEEEEEEEEEEEEEETPEQPTAGDVFVLEMVLNRETKKMMKEKRPRSKLPRALRGLMGEANIRFARGEREEAILMCMEIIRQAPLAYEPFSTLAMIYEDQGDMEKSLQFELIAAHLNPSDTEEWVRLAEMSLEQDNIKQAIFCYTKALKYEPTNVRYLWERSSLYEQMGDHKMAMDGYRRILNLLSPSDGERFMQLARDMAKSYYEANDVTSAINIIDEAFSKHQGLVSMEDVNIAAELYISNKQYDKALEIITDFSGIVLEKKTSEEGTSEENKAPENVTCTIPDGVPIDITVKLMVCLVHLNILEPLNPLLTTLVEQNPEDMGDLYLDVAEAFLDVGEYNSALPLLSALVCSERYNLAVVWLRHAECLKALGYMERAAESYGKVVDLAPLHLDARISLSTLQQQLGQPEKALEALEPMYDPDTLAQDANAAQQELKLLLHRSTLLFSQGKMYGYVDTLLTMLAMLLKVAMNRAQVCLISSSKSGERHLYLIKVSRDKISDSNDQESANCDAKAIFAVLTSVLTKDDWWNLLLKAIYSLCDLSRFQEAELLVDSSLEYYSFYDDRQKRKELEYFGLSAAILDKNFRKAYNYIRIMVMENVNKPQLWNIFNQVTMHSQDVRHHRFCLRLMLKNPENHALCVLNGHNAFVSGSFKHALGQYVQAFRTHPDEPLYSFCIGLTFIHMASQKYVLRRHALIVQGFSFLNRYLSLRGPCQESFYNLGRGLHQLGLIHLAIHYYQKALELPPLVVEGIELDQLDLRRDIAYNLSLIYQSSGNTGMAQTLLYTYCSI",,,-1.189 log2,0.6927 log2
"HNRNPA2B1 (protein, UniProt P22626 1-353, looked up) Heterogeneous nuclear …: MEKTLETVPLERKKREKEQFRKLFIGGLSFETTEESLRNYYEQWGKLTDCVVMRDPASKRSRGFGFVTFSSMAEVDAAMAARPHSIDGRVVEPKRAVAREESGKPGAHVTVKKLFVGGIKEDTEEHHLRDYFEEYGKIDTIEIITDRQSGKKRGFGFVTFDDHDPVDKIVLQKYHTINGHNAEVRKALSRQEMQEVQSSRSGRGGNFGFGDSRGGGGNFGPGPGSNFRGGSDGYGSGRGFGDGYNGYGGGPGGGNFGGSPGYGGGRGGYGGGGPGYGNQGGGYGGGYDNYGGGNYGSGNYNDFGNYNQQPSNYGPMKSGNFGGSRNMGGPYGGGNYGPGGSGGSGGYGGRSRY",,,-1.185 log2,1.703 log2
"SF3B1 (protein, UniProt O75533 1-1304, looked up) Splicing factor 3B subunit 1: MAKIAKTHEDIEAQIREIQGKKAALDEAQGVGLDSTGYYDQEIYGGSDSRFAGYVTSIAATELEDDDDDYSSSTSLLGQKKPGYHAPVALLNDIPQSTEQYDPFAEHRPPKIADREDEYKKHRRTMIISPERLDPFADGGKTPDPKMNARTYMDVMREQHLTKEEREIRQQLAEKAKAGELKVVNGAAASQPPSKRKRRWDQTADQTPGATPKKLSSWDQAETPGHTPSLRWDETPGRAKGSETPGATPGSKIWDPTPSHTPAGAATPGRGDTPGHATPGHGGATSSARKNRWDETPKTERDTPGHGSGWAETPRTDRGGDSIGETPTPGASKRKSRWDETPASQMGGSTPVLTPGKTPIGTPAMNMATPTPGHIMSMTPEQLQAWRWEREIDERNRPLSDEELDAMFPEGYKVLPPPAGYVPIRTPARKLTATPTPLGGMTGFHMQTEDRTMKSVNDQPSGNLPFLKPDDIQYFDKLLVDVDESTLSPEEQKERKIMKLLLKIKNGTPPMRKAALRQITDKAREFGAGPLFNQILPLLMSPTLEDQERHLLVKVIDRILYKLDDLVRPYVHKILVVIEPLLIDEDYYARVEGREIISNLAKAAGLATMISTMRPDIDNMDEYVRNTTARAFAVVASALGIPSLLPFLKAVCKSKKSWQARHTGIKIVQQIAILMGCAILPHLRSLVEIIEHGLVDEQQKVRTISALAIAALAEAATPYGIESFDSVLKPLWKGIRQHRGKGLAAFLKAIGYLIPLMDAEYANYYTREVMLILIREFQSPDEEMKKIVLKVVKQCCGTDGVEANYIKTEILPPFFKHFWQHRMALDRRNYRQLVDTTVELANKVGAAEIISRIVDDLKDEAEQYRKMVMETIEKIMGNLGAADIDHKLEEQLIDGILYAFQEQTTEDSVMLNGFGTVVNALGKRVKPYLPQICGTVLWRLNNKSAKVRQQAADLISRTAVVMKTCQEEKLMGHLGVVLYEYLGEEYPEVLGSILGALKAIVNVIGMHKMTPPIKDLLPRLTPILKNRHEKVQENCIDLVGRIADRGAEYVSAREWMRICFELLELLKAHKKAIRRATVNTFGYIAKAIGPHDVLATLLNNLKVQERQNRVCTTVAIAIVAETCSPFTVLPALMNEYRVPELNVQNGVLKSLSFLFEYIGEMGKDYIYAVTPLLEDALMDRDLVHRQTASAVVQHMSLGVYGFGCEDSLNHLLNYVWPNVFETSPHVIQAVMGALEGLRVAIGPCRMLQYCLQGLFHPARKVRDVYWKIYNSIYIGSQDALIAHYPRIYNDDKNTYIRYELDYIL",,,-1.121 log2,2.403 log2
"RALGPS2 (protein, UniProt Q86X27 1-583, looked up) Ras-specific guanine …: MDLMNGQASSVNIAATASEKSSSSESLSDKGSELKKSFDAVVFDVLKVTPEEYAGQITLMDVPVFKAIQPDELSSCGWNKKEKYSSAPNAVAFTRRFNHVSFWVVREILHAQTLKIRAEVLSHYIKTAKKLYELNNLHALMAVVSGLQSAPIFRLTKTWALLSRKDKTTFEKLEYVMSKEDNYKRLRDYISSLKMTPCIPYLGIYLSDLTYIDSAYPSTGSILENEQRSNLMNNILRIISDLQQSCEYDIPMLPHVQKYLNSVQYIEELQKFVEDDNYKLSLKIEPGTSTPRSAASREDLVGPEVGASPQSGRKSVAAEGALLPQTPPSPRNLIPHGHRKCHSLGYNFIHKMNTAEFKSATFPNAGPRHLLDDSVMEPHAPSRGQAESSTLSSGISIGSSDGSELSEETSWPAFERNRLYHSLGPVTRVARNGYRSHMKASSSAESEDLAVHLYPGAVTIQGVLRRKTLLKEGKKPTVASWTKYWAALCGTQLFYYAAKSLKATERKHFKSTSNKNVSVIGWMVMMADDPEHPDLFLLTDSEKGNSYKFQAGNRMNAMLWFKHLSAACQSNKQQVPTNLMTFE",,,-1.125 log2,6.032 log2
